# Laboratory results as given in patent US20100080800A1.
# Target: Aβ13-21 peptide (peptide 13)
# Experiment: ELISA, biotinylated peptide (Mimotopes protocol)
substance,measurement,value
Control IgG (antibody),O.D,0.171 O.D
